Non-standard residues stand in square brackets, D forms with d. Fluo = fluorescein on the Cys side-chain sulfur; Nle = CCCC[C@H](N)C(=O)O

What is called Kd is the equilibrium constant for the complex coming apart.

The target in this experiment is recombinant Epstein Barr virus (EBV) IL10 (Epstein Barr virus, UniProt P03180 24-170). Description: concentration-dependent changes in fluorescence intensity of the environment-sensitive fluorescein label on the peptide.
recombinant Epstein Barr virus (EBV) IL10, sequence (P03180 24-170 limits assumed): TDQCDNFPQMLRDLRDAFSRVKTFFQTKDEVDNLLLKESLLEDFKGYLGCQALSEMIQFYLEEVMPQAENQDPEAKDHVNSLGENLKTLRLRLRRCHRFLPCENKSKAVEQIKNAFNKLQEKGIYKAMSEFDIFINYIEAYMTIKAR

B1: IL10-HF-6 (peptide)
peptide: Ac-C(Fluo)YKA[Nle]SEFDIFINYIEAY[Nle]T[Nle]KIRN-NH2
notes: also called fluorescent derivative of helix F of IL10; helix F analog
Regarding B1, the Kd was 50 nM.

Source of the values: patent publication US20130109619A1 (UNITED STATES OF AMERICA AS REPRESENTED BY THE SECRETARY …, published 2013).
